Source: the supplement of paper PMC9170038

Test system: MS2 coat protein
Assay: apparent KD of MS2 coat protein; designed switch direction (-1 OFF switch, 1 ON switch): -1; higher = weaker reporter binding
In short: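 RNA switches sharing common flanks were transcribed by stalled E. coli RNA polymerase on Illumina chips. A doubling series of SNAP-549-labelled MS2 coat protein, from 0.7 or 1.5 nM to 3 µM, was applied in Tris-HCl pH 7.5 buffer with KCl, MgCl2, BSA, DTT, tRNA and Tween-20. Each step lasted 0.8–1.5 h at the bottom of the series and 10–20 min at the top. Normalised cluster fluorescence was curve-fitted, giving apparent KD as the per-design median over clusters.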

[1] = input ligand: microRNA oligo, concentration not stated
[2] = Eterna round: R95, input ligand: microRNA oligo, concentration not stated
[3] = Eterna round: R95, input ligand: FMN 200 uM
[4] = Eterna round: R95, input ligand: none

| Sequence | apparent KD of MS2 coat protein (input ligand: FMN 200 uM) | apparent KD of MS2 coat protein (input ligand: none) | apparent KD of MS2 coat protein [2] | also measured |
| --- | --- | --- | --- | --- |
| UCACCGCAAGGAUAUACUUGCGGUGAUGCUCGAAACUUUCUACUUGAGGAUCACCCAAGUAGAAGGUGCGGUGA [jl-ex2.4.68 ViennaUCT mod] (Eterna round: R97, puzzle: Exclusion 2) | 12.1 nM | 13.1 nM | – | – |
| UCACGGGACUGAGGAUAUACAUCAACCAUGGUUGUAGAAGGCAGAAGGUUGGAUCAUACACUAAACAUGAGGAUCACCCAUGUU [JR_ExcNG1_Sub029] (Eterna round: R96, puzzle: Exclusion NG 1) | 17.7 nM | 21.6 nM | – | apparent KD of MS2 coat protein [1]: 16.8 nM |
| UCACGGGACUGAGGAUAUACAUGAAUUAUUUUUGUAGAAGGCAGAAUGUUAGAUUAUUCACUAUACAUGAGGAUCACCCAUGUU [JR_ExcNG1_Sub022] (Eterna round: R96, puzzle: Exclusion NG 1) | – | – | – | apparent KD of MS2 coat protein [1]: 18.8 nM |
| UCACGGGAUUGAGGAUAUAUAUGAAUUUUUUUUAUAGAAGGCAAAAUGUUAGAUUAUUCACUAUACAUGAGGAUCACCCAUGUU [JR_ExcBG1_Sub075] (Eterna round: R96, puzzle: Exclusion NG 1) | – | – | – | apparent KD of MS2 coat protein [1]: 20.3 nM |
| UCACGGGAUUGAGGAUAUAUAUUAAUUUUUACAAUAGAAGGCAAAUUUUUAGUUUUUUCACUUUACAUGAGGAUCACCCAUGUU [JR_ExcBG1_Sub081] (Eterna round: R96, puzzle: Exclusion NG 1) | – | – | – | apparent KD of MS2 coat protein [1]: 20.5 nM |
| UCACGGGUUUGAGGAUAUAUUAUUAUUAUUUAAAUAGAAGGCAAAGAAAUUGUUAUUUCACUAUACAUGAGGAUCACCCAUGUU [JR_ExcNG1_Sub088] (Eterna round: R96, puzzle: Exclusion NG 1) | – | – | – | apparent KD of MS2 coat protein [1]: 19.5 nM |
| UCAUAACAUGAGGAUCACCCAUGUCAGGAUAUGAUACUAUGUACUUCGGUACAUAGUAUCAGAAGGGACAUACU [Ex1-3: 12] (puzzle: Exclusion 1) | – | – | 103 nM | – |
| UCAUAACAUGAGGAUCACCCAUGUGAGGAUAUGAUACUAUGUACUUCGGUACAUAGUAUCAGAAGGCACAUGCU [Brourd's Ex1-3: 11 (nt 72 G)] (puzzle: Exclusion 1) | – | – | 127 nM | apparent KD of MS2 coat protein [3]: 34.8 nM; apparent KD of MS2 coat protein [4]: 127 nM |
| UCAUGGUAGCAGGAUAUGCUUGUUUAAUUUUUUGCAGAAGGGCUAACAUGAGGAUCACCCAUGUGAGAGGUCUA [JR_E6_Sub065] (puzzle: Exclusion 6) | – | – | 64.3 nM | apparent KD of MS2 coat protein [3]: 31 nM; apparent KD of MS2 coat protein [4]: 144 nM |
| UCAUGUUUAGAGGAUAUGAUUACUCUAGAGUGAUCAGAAGGCUAGACAUGAGGAUCACCCAUGUCAGAACAUGA [Exclusion 6 - B - 16:b] (puzzle: Exclusion 6) | – | – | 47.6 nM | apparent KD of MS2 coat protein [3]: 95.4 nM; apparent KD of MS2 coat protein [4]: 46.5 nM |
| UCCGCGCGCUUGCGCGCGGACAUGAGGAUCACCCAUGUCGGGCUUUUUGCUCGUUUUGUUGCGCGCGUUCGCGCGCG [Revision to Olbi_3 by Sunset] (Eterna round: R97, puzzle: Sensor, turn-off variant 1) | 89.1 nM | 101 nM | – | – |
| UCCGGACAUGAGGAUCACCCAUGUGAGGAUAUUGUCGACACGACUGAAAGGAUCACGGCGAGAAGGCGCUUGGA [Eternabot (L2) Solution 48] (Eterna round: R97, puzzle: Exclusion 1) | 25.7 nM | 21.6 nM | – | – |
| UCCUCACAUGAGGAUCACCCAUGUCAGGAUAUACGAACGGUAAGUGACAAUCGAUUACGUAGAAGGGACUGCGG [Eternabot (L1) Solution 78] (Eterna round: R97, puzzle: Exclusion 1) | 110 nM | 121 nM | – | – |
| UCCUCACAUGAGGAUCACCCAUGUGAGGAUAUCAUGCUUCGUAGUAAACUACGAAGUGUGAGAAGGCACAUGGC [Omei Ex1 D15] (Eterna round: R97, puzzle: Exclusion 1) | 23.9 nM | 19.6 nM | – | – |
| UCCUCACAUGAGGAUCACCCAUGUUAGGAUAUCUUAGAGCGCGAAAGACAGUUCUUUAAGAGAAGGAACUGGGC [Exclusion 1 (MOD1 of Edarti)] (Eterna round: R97, puzzle: Exclusion 1) | 54 nM | 22.4 nM | – | – |
| UCCUCCUAAGGAUAUGCGUCGGUUGAACUAUGCUAAAAGGGACAUGAGGAUCACCCAUGUAGAAGGUAGGGCAG [Eternabot (L2) Solution 86] (Eterna round: R97, puzzle: Exclusion 2) | 72.5 nM | 48.8 nM | – | – |
| UCCUCGUCAGGAUAUGUCUCGACGCGGUCCGCGUGCGGUCAACAGAAGGGACAUGAGGAUCACCCAUGUGCAGA [Eternabot (Original) Solution 38] (Eterna round: R97, puzzle: Exclusion 4) | 228 nM | 204 nM | – | – |
| UCCUGGCGAGGAUAUACAAAGAUUUUUUCGUUUUGUUUCGAACAUGAGGAUCACCCAUGUAGAAGGUGCUGCUG [JR_Ex2_Sub015] (Eterna round: R97, puzzle: Exclusion 2) | 46.4 nM | 46.7 nM | – | – |
| UCCUUACAUGAGGAUCACCCAUGUCAGGAUAUCUCCACACUGCGCUUGCGCAGUGUAUAGAGAAGGGACGGGCU [JL ViennaUCT Aner mod 7] (puzzle: Exclusion 1) | – | – | 28.5 nM | – |
| UCGAAGCUAGGAUAUACAUGAGGAUCACCCAUGUGAGUAAUAACUUGGAGAUACCUCCGUAGAAGGAGCACAAA [Beatdienat] (puzzle: Exclusion 3) | – | – | 107 nM | apparent KD of MS2 coat protein [3]: 310 nM; apparent KD of MS2 coat protein [4]: 125 nM |
| UCGCCGCCCUUGGGCGGCGACAUGAGGAUCACCCAUGUCAAGCUUUUUGCUCGUUUUAUUGCCGGCCUUGGCCGGCU [Olib_2] (Eterna round: R97, puzzle: Sensor, turn-off variant 1) | 28.3 nM | 33.2 nM | – | – |
| UCGGAUUCAGGAUAUUGCACAUGUGACAUGAGGAUCACCCAUGUUCCCUUAUUUGGUCACCAAGAAGGGAGUUUAU [Eternabot (L2) Solution 34] (Eterna round: R97, puzzle: Exclusion 5) | 157 nM | 152 nM | – | – |
| UCGGCGCGAGGAUAUACGUUUGCGCUUUUUCGUUUUUGUGUACAUGAGGAUCACCCAUGUAGAAGGCGCGCCGC [Apr-15 SS2-18] (puzzle: Exclusion 2) | – | – | 14.9 nM | – |
| UCGGCGCGAGGAUAUACGUUUGCUUUUUUGUGUCGUUGCGUACAUGAGGAUCACCCAUGUAGAAGGCGCGCCGC [Apr-15 SS2-24] (puzzle: Exclusion 2) | – | – | 16 nM | – |
| UCGGCGCGAGGAUAUGCGGUUUGUGCUUCGGGCCCUCGCGUACAUGAGGAUCACCCAUGUAGAAGGCGCGCCGC [Apr-15 SS2-45] (puzzle: Exclusion 2) | – | – | 75.2 nM | – |
